Strength of interaction relative to ARL-3 FL (β-galactosidase activity) (fold of ARL-3 FL) data for one substance are collected here from PMC1561584.

The target in this test is LexA-UNC-119 (C. elegans) (UniProt Q10658). In words: two-hybrid; LexA baits and GAD preys in strain L40; data not shown.
Sequence of UniProt Q10658 (Q10658 whole entry): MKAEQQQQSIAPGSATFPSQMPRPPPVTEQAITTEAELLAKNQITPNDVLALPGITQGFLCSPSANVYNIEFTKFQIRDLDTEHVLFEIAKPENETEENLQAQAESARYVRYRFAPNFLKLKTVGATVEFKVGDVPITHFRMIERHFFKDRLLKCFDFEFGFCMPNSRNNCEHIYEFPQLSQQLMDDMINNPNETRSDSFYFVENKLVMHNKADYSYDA

For the substance ARL-3Δ17 (domain or fragment), the strength of interaction relative to ARL-3 FL (β-galactosidase activity) (fold of ARL-3 FL) was determined as 0.2.
